“And” between values parts separate entries of the source, which are not always exact repeats. Equal values may be shown once. “Also recorded” adds a separate entry of the source. Read-outs that look alike come from different tables or passages of the source. Blank lines part the entries; values can stand above or below the molecule they belong to.
Key:
[1] = system: HM7 (human colon carcinoma cell line); test: Liver metastasis of HM7 cells transplanted into the spleen of nude mice; type: in vivo
Text: In order to conduct an experiment concerning the metastasis of cancer cells to the liver, cancerous cells were transplanted into the spleen. In this regard, after being anesthetized with diethyl ether, 4-week-old male mice (athymic nude mice, BALB/c/nu/nu, Charles River, Japan) underwent flank incision. […] Four weeks after the injection, the liver was excised from each mouse and measured for weight and the size and number of metastatic nodules formed. Each test group was composed of 6-7 mice. In a student's t-test, a p value less than 0.05 was regarded as being statistically significant. In the test using tetrazolium dye (cell titer 96 Non-radioactive Proliferation Assay Kit, Promega), each peptide was evaluated to have no influence on the growth of the cancer cells (5×10^3 cells/well), so that the possibility that the toxicity of the peptide themselves might inhibit the growth and metastasis of cancer cells could be excluded.

[2] = system: HM7 (human colon carcinoma cell line); test: Subcutaneous HM7 tumor growth in athymic nude mice; type: in vivo; details: after 15 days of subcutaneous injection
Protocol: From the next day, a solution of each peptide in PBS (0.5 μg/100 μl/day) was subcutaneously injected to the mice for 15 days. Sizes of the tumors thus formed were periodically measured while tumor volumes were calculated according to the following formula: Tumor Size=0.5×(Diameter)^2×length

[3] = system: rabbit corneal domes; test: Rabbit corneal dome angiogenesis induced by VEGF; type: in vivo; details: VEGF 10 ng with 1 μg peptide, 16 days after operation
Protocol: To confirm the test results obtained from egg CAM, an experiment was performed using rabbit corneal domes for in vivo angiogenesis testing. New Zealand male rabbits weighing 3 kg (SLC, Japan) were subjected to intramuscular ketamine anesthesia (44 mg/kg), followed by dissecting the corneal domes to a length of 3 mm by use of an operating knife (Bard-Parker—#11). […] 16 days after the operation, angiogenesis was obviously observed and photographs were taken of blood vessels newly formed in the corneal dome (Nikon, FS-2, Japan).

[4] = target: T1, VEGF (Homo sapiens, UniProt P15692); test: Inhibition of 125I-labeled VEGF binding to its receptors on HUVEC; details: 10 μM peptide (FIG. 6)
T1 sequence (P15692 27-191 isoform P15692-4): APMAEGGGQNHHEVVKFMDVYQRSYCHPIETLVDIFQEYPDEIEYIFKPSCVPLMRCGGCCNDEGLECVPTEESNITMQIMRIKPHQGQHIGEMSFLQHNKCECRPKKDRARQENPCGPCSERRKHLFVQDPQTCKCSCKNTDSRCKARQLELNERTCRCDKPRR
Protocol: Then, the cells were transferred to a medium (Medium 199/25 mM HEPES, pH 7.4/0.1% bovine serum albumin) containing 0.2 ng of ^125I-labeled VEGF and various concentrations of peptides or combinatorial peptide libraries and reacted at 4° C. for 3 hours. The cells were washed twice with the same medium and once with PBS containing 0.1% albumin to remove the labeled VEGF which still remained uncombined. Thereafter, to quantify the labeled VEGF which bound to receptors present on the surface of the vascular endothelial cells, the cells were treated with 0.5 ml of a lysis solution (20 mM Tris-HCl, pH 7.4/1% TritonX-100) for 20 min, followed by measuring the resulting lysate for radioactivity with the aid of a γ-counter.
The sequence of each peptide was indirectly decided through the analysis of amino acid compositions and its concentration was determined, after which 12 peptides were assayed for antagonism toward VEGF binding at various concentrations (1, 4, 10, and 20 μM/sequence).

[5] = system: HT1080 (human fibrosarcoma); test: Egg CAM assay, angiogenesis induced by VEGF-secreting cancer cells; type: in vivo; details: egg CAM, 10^5 HT1080 cells/egg with 0.1 μg peptide; for Angiogenic activity(%): (standard deviation)
Protocol: An experiment using egg CAM was carried out to confirm the inhibitory activity of the screened peptides against the angiogenesis induced by cancer cells, which secrete VEGF. Fertilized eggs were deprived of albumin and windows were formed on the eggs as in above. 10^5 cells of HT1080 (human fibrosarcoma) were mixed with 7.5 μg of Type I collagen (rat tail, Beckton Dickinson, USA) within a volume of 5 μl and dropped onto ¼ fraction pieces of Thermanox coverslips to give collagen sponges. After being covered with the collagen sponges, 10-day embryonic egg CAM was incubated at 37° C. for 3 days. Blood vessels induced by the cancer cells were observed and photographed as in above (see Table 6 and FIG. 12).

[6] = system: egg CAM (chorioallantoic membranes); test: Egg CAM assay, angiogenesis induced by VEGF; type: in vivo
Protocol: Fertilized eggs (Pulmuwon, Korea) were incubated at 37° C. under a humidity of 90%. After three days of culturing, the eggs were deprived of about 2 ml of albumin. After four days, eggs were partially deprived of the sheath to make a window with a size of 2×2 cm.
After VEGF (10 ng/egg) was mixed with various amounts of peptides or other samples, 3 μl of each mixture was dropped onto ¼ fraction pieces of thermanox coverslips (Nunc) and dried. The pieces were placed on CAM of 9-day embryonic eggs.
Two days later, the samples were independently observed under anatomical microscopes by two different persons to determine whether new blood vessels are induced by the dropped samples or not. In this regard, the experiment was repeated at least three times using 10 or more eggs per sample and the results are given in Table 5, below.

[7] = target: VEGF receptors present on the surface of HUVEC (human umbilical vein endothelial cells) (human); test: Scatchard analysis of 125I-VEGF165 binding to HUVEC; the kind of receptor at about 2,000 per cell
[8] = target: VEGF receptors present on the surface of HUVEC; test: Binding of 125I-labeled VEGF165 to HUVEC, Scatchard analysis; parameters: species or system human
Protocol: First, HUVEC (human umbilical vein endothelial cells) (Clonetics) were placed on gelatin-coated 100 mm dishes (Falcon) containing a vascular endothelial cell culture medium (Medium 199+20% BCS, 5 μg/ml of heparin, 6 μg/ml of endothelial cell growth supplement, 5 ng/ml of basic fibroblast growth factor) and cultured at 37° C. in a CO2 incubator for animal cell culture. After a certain period of time, the cells were treated with trypsin/EDTA. After centrifugation, the cells harvested were suspended in a fresh, vascular endothelial cells culture medium and aliquoted at a density of 5×10^4 cell/well to a 24 well plate (Costar Co.). […] Thereafter, to quantitatively determine the amount of the labeled VEGF which bound to receptors present on the surface of the vascular endothelial cells, the cells were treated with 0.5 ml of a lysis solution (20 mM Tris-HCl, pH 7.4/1% TritonX-100) for 20 min, followed by measuring the resulting lysate for radioactivity with the aid of a γ-counter. As for the non-specific binding, it was determined from a cell group cultured in the presence of a mixture of the labeled VEGF and non-labeled VEGF in a molar ratio of 1:100. […]
The measurement results are shown in FIGS. 1a and 1b in which radioactivity is plotted versus time and concentration, respectively.

[9] = target: T2, ^125I-labeled VEGF165, P15692; test: inhibition of 125I-VEGF binding to its receptors on HUVEC, gamma counting
T2 chain: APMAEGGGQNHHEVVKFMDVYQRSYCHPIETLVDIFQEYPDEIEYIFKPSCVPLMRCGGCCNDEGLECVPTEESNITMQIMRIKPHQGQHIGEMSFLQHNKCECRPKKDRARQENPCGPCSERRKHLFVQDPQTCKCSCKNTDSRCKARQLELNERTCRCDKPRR

[10] = target: T3, VEGF (R&D systems), P15692; test: cell-based or functional assay
T3 chain: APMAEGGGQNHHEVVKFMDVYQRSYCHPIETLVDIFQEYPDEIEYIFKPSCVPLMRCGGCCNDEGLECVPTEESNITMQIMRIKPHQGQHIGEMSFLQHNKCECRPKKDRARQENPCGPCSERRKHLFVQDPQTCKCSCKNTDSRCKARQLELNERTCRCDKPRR

[11] = target: T4, VEGF secreted from HT1080 human fibrosarcoma cells (human), P15692; test: cell-based or functional assay
T4 chain: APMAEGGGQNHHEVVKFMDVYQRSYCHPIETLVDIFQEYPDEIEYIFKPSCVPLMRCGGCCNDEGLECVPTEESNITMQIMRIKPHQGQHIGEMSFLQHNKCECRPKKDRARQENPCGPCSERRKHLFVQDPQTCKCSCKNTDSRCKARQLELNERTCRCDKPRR

[12] = target: T2, ^125I-labeled VEGF165, P15692; test: 125I-VEGF on plate-fixed peptide, competition; KD computed from the IC50
[13] = VEGF 10 ng/egg alone or with 1 μg sample
[14] = VEGF 10 ng/egg alone or with 1 μg sample, (standard deviation)

Molecule: EEFDDA: control peptide of an amino acid sequence EEFDDA [reference compound]
- metastasis of cancer cells versus tumor injected alone ([1]; mouse, in vivo): No difference in metastasis
- effect on tumor size / growth of human colon carcinoma cells in mice [2]: no effects
- VEGF-induced angiogenesis in the rabbit corneal dome [3]: had no influence on the VEGF-induced angiogenesis; also recorded: obvious angiogenesis

- inhibition between labeled VEGF and its receptors [4]: no inhibition was observed
Molecule: KKKKKK: control peptide consisting of only lysine [reference compound]
- metastasis, % of the control group to which only PBS was injected ([1]; weak inhibitory activity, measure not specified): about 80%
- Angiogenic activity eggs/total eggs [5]: 14/22
- Angiogenic activity(%) [5]: 59.0(1.4) %
- Angiogenic activity(%) ([5]; listed as control peptide): 59%
- Angiogenic activity eggs/total eggs [6, 13]: 8/25

Molecule: VEGF
- Angiogenic activity eggs/total eggs [6, 13]: 9/27
- Angiogenic activity(%) [6, 14]: 33.6% and 33.6(3.8) %

- Kd [7]: 3 pM
Molecule: ^125I-labeled VEGF165 (from UniProt P15692 27-191) (ligand)

Molecule: ^125I-labeled VEGF: radioactive iodine-labeled VEGF165 used as ligand
- Kd ([8]; receptor density about 2,000 per cell, read-out: dissociation constant (KD), first kind of receptor): 0.003 nM
- Kd ([8]; receptor density about 6,000 per cell, read-out: dissociation constant (KD), other kind of receptor): 0.05 nM

Molecule: protamine [reference compound]
- Angiogenic activity eggs/total eggs [6, 13]: 5/26
- Angiogenic activity(%) [6, 14]: 18.8(4.1) % and 18.4(4.1) %
- Angiogenic activity(%) ([6]; VEGF with protamine 50 μg/egg as stated in text): about 18.8%

- IC50 [9]: 7.8 µM
Molecule: RKRRRR (modifications not checked) [Table 4 peptide 10 (RKRRRR)]

- IC50 [9]: 6.5 µM
Molecule: RKKRRR (modifications not checked) [Table 4 peptide 7 (RKKRRR)]

- Angiogenic activity(%), egg CAM, VEGF 10 ng + peptide 1 µg (VEGF alone 33.6, water 10.8) [10]: 15.6%
- Angiogenic activity(%), egg CAM, HT1080 cancer cells + peptide 0.1 µg (cancer cell alone 76.0, no treatment 18.5) [11]: 43%
- Kd [12]: 2 µM
- IC50 [9]: 3.4 µM
Molecule: H-RKKRKR-NH2 [peptide of sequence 2 (SEQ ID NO: 2) (NH2-Arg-Lys-Lys-Arg-Lys-Arg-CONH2)]

- Angiogenic activity(%), egg CAM, VEGF 10 ng + peptide 1 µg (VEGF alone 33.6, water 10.8) [10]: 15.6%
- Angiogenic activity(%), egg CAM, HT1080 cancer cells + peptide 0.1 µg (cancer cell alone 76.0, no treatment 18.5) [11]: 36%
- Kd [12]: 5 µM
- IC50 [9]: 2 µM
Molecule: H-RRKRRR-NH2 [peptide of sequence 1 (SEQ ID NO: 1) (NH2-Arg-Arg-Lys-Arg-Arg-Arg-CONH2)]

- Angiogenic activity(%), egg CAM, VEGF 10 ng + peptide 1 µg (VEGF alone 33.6, water 10.8) [10]: 15.6%
- Angiogenic activity(%), egg CAM, HT1080 cancer cells + peptide 0.1 µg (cancer cell alone 76.0, no treatment 18.5) [11]: 41%
- Kd [12]: 22 µM
- IC50 [9]: 3.8 µM
Molecule: H-RRRRRR-NH2 [peptide of sequence 3 (SEQ ID NO: 3) (NH2-Arg-Arg-Arg-Arg-Arg-Arg-CONH2)]

- IC50 [9]: 6 µM
Molecule: RRKRKR (modifications not checked) [Table 4 peptide 2 (RRKRKR)]

- IC50 [9]: 8.5 µM
Molecule: RKRRKR (modifications not checked) [Table 4 peptide 4 (RKRRKR)]
